Sequences and labels used below:
B1: Fab U2 (Fab, V domains shown)
VH: VQLLEQSGAEVKRPGSSVKLSCKNSGGTFITQAMSWVRQAPGQGLEWMGGIIPVFGTVNYAQNILDRATATADEDTFSLELRGLRLEDTAVYYCAREVNLKTWNLARPDVFDIWGPGTLVTVSS
VL: ELTQSPSSLSASIGDRVTIPCRASQSILNHLNWYQQKPGQPPKLLIFAASNLQSGVPSRFSGSGSGTDFTLTISSLQTEDFATYYCQQSYSTPRTFGQGTKVEVKR
B2: Fab L5 (Fab, V domains shown)
VH: VQLLEQSGTEVKKPGSSVKVSCKVPGDTFRSYVITWVRQAPGQGLEWLGGILPFFGTTNLAQKFQGRVTLTADESTTTAYMELSSLRAEDTAVYYCAKAGDLAFGGVIAGGVPHLSHFDPWGQGTLVTVSS
VL: ELTQSPGTLSLSPGERATLSCRASQSVRSNYLAWYQQKPGQAPRLLIYGASSRATGIPDRFSGSGSGTDFTLTISRLEPEDFAMYYCQQYGSSMCSFGQGTKVEIKR
B3: Fab L6 (Fab, V domains shown)
VH: VQLLEQSGTEVKKPGSSVKVSCKVPGDTFRSYVITWVRQSPGQGLEWLGGILPFFGTTNLAQKFQGRVTLTADESTTTAYMELSSLRSEDTAVYYCAKAGDLAFGGVIAGGVPHLSHFDPWGQGTLVTVSA
VL: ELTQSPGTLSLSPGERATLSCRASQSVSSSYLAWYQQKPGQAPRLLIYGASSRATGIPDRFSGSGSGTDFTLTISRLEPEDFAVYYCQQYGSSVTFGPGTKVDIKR
B4: Fab J5 (Fab, V domains shown)
VH: VQLLEQSGAEVKKPGSSVTVSCKASGGTVSSYPITWVRQAPGQGLEWMGGTIPVFGAPKYAPKFQGRVTITADESTSTAYMELRSLRSDDTAMYYCAIVGMRGITLVGGLAMNWLDPWGQGTLVIVSS
VL: ELTQSPGTLSLSPGERATLSCRASQSVSSNYLAWYQQKPGQAPRLLIYGASSRATGIPDRFSGSGSGTDFTLSISRLEPEDFAVYYCQQYGSSPLTFGGGTKVEIKR
B5: Fab S2 (Fab, V domains shown)
VH: VQLLEQSGAEVKKPGASVKVSCTASGYIFTSFGISWVRQAPGQGLEWMGRIDTYNGKTNYAQKLQGRVTMTTDTYTSTAYMELRSLTSDDTAVYYCARDDCRSSTCYLAQHNWQAYYHDSWGQGTLVTVSS
VL: ELTQSPATLSLSPGERATLSCRASQSVSSRFLAWYQQKPGQAPRLLIYGASSRATGIPDRFSGSGSGTDFTLTISRLEPEDFAVYYCQQYGSSPQTFGQGTKVEIKR
B6: Fab U3 (Fab, V domains shown)
VH: VQLLEQSGAEVKRPGSSVKISCKNSGGTFITQAMSWVRQAPGQGLEWMGGIIPIFGTVNYAQKILGRVTITADEDTVSMELSSLGFEDTAVYYCAREVNLKSWNLAHPDVFDIWGQGTLVTVSS
VL: ELTQSPSSLSASVGDRVTITCRASQSIRSYLNWYQQKPGKAPNLLIYSASNLQSGVPSRFRGSGSGTDFTLTISSLQPEDFATYYCQQSYRTPRTFGQGTKVESKR
B7: Fab N1 (Fab, V domains shown)
VH: VQLLEQSGPEVKKPGDSLRISCKMSGDSLVTTWIGWVRQKPGQGLEWMGIINPGDSSTNIYPGDSATRYGPSFQGQVTISIDKSTSTAYLQWNAVKPSDTGIYYCARHVPVPISGTFLWREREMHDFGYFDDWGQGTLVIVSS
VL: ELTQSPGTLSLSPGERATLSCRASQSVSSSYLAWYQQKPGQAPRLLIYGASNRAAGIPDRFSGSGSGADFTLTISRLEPEDFAVYYCQQYGSSLITFGQGTRLEIKR
notes: Soluble Fab
B8: Fab N2 (Fab, V domains shown)
VH: VQLLEQSGPEVKKPGDSLRISCKMSGDSLVTTWIGWVRQKPGQGLEWMGIINPGDSSTNIYPGDSATRYGPSFQGQVTISIDKSTSTAYLQWNTVKPSDTGIYYCARHVPVPISGTFLWREREMHDFGYFDDWGQGTLVIVSS
VL: ELTQSPGTLSLFPGERATLSCRASQSILGRYLAWYQQKGGRAPRLLIFGASKRATGIPDRFSGSGSGTDFTLTIGRLEPEDFAVYYCQHYGSSITFGQGTRLDIKR
notes: Soluble Fab
B9: Fab P1 (Fab, V domains shown)
VH: EVQLLESGGGVVQPGGSLRLSCAASGFTFTSFTMHWVRQAPGKGLEWVALISHDGSNKDYADSVRGRFTVSRDNSKKMVYLQMSSLRPDDAAVYYCARGGPAYYTYSDTLTGYHNVVGDYWGQGTLVTVSS
VL: ELTQSPGTLSLSPGERATLSCRASQVRGFLAWFQQKPGQAPRLLIYGASNRAPGIPDRFSGSGSGTDFTLTISRLEPEDFAVYYCQQYGDSPPITFGQGTRLEIKR
notes: Soluble Fab
B10: Fab P1a (Fab, V domains shown)
VH: EVQLLESGGGVVQPGGSLRLSCAASGFTFTSFTMHWVRQAPGKGLEWVALISHDGSNKDYADSVRGRFTVSRDNSKKMVYLQMSSLRPDDAAVYYCARGGPAYYTYSDTLTGYHNVVGDYWGQGTLVTVSS
VL: ELTQSPGTLSLSPGERATLSCRTSQSVSSTYLAWYQQKPGQPPRLLIYGASNRAPGIPDRFSGSGSGTDFTLTISRLEPEDFAVYYCQQYGDSPPITFGQGTRLDIKR
B11: Fab O1 (Fab, V domains shown)
VH: VQLLEQSGAEVKKAGESVRLSCKASGYRFGDYWIAWVRQLPGRAPEWMGIIYPDDSDTKYSPSFQGQVTISADKSIRTTFLDWGSLKASDTAIYYCARGCLGAKCYYPHYYYGLDVWGQGTTVIVSS
VL: ELTQSPSSLSASVGDRVTITCRATQGIDNYLNWYQQKPGKPPRLLIYGASSLQSGVPSRFSGGGSGTHFTLTITNLQPEDFATYYCQQSYSTPPETFGQGTKVEIKR
notes: Soluble Fab
B12: Fab P3 (Fab, V domains shown)
VH: EVQLLESGGGVVQPGKSLRLSCAVSGFTLNTFAMHWVRQVPGKGLEWVALTSHDGSRQDYADSVRGRFTISRDNSKSMVFLLMNSLRAEDTAVYYCVRGGPAYYTYNDVLTGYAYVVGDFWGQGTLVTVSS
VL: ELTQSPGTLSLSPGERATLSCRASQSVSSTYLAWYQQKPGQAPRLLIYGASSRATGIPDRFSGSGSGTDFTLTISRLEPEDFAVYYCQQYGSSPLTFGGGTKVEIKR
B13: Fab T1 (Fab, V domains shown)
VH: EVQLLESGGGLVQPGGSLRLSCAASGFTFSRFWMHWVRQAPGKGLVWVARINSDGSSTTYADSVKGRFTISRDNAKNTLYLQMNSLRDEDTAVYFCARGGDSSSPYYYPMDVWGQGTTVAVSS
VL: not shown
B14: Fab S1 (Fab, V domains shown)
VH: VQLLEQSGAEVKKPGTSVKVSCTASGYIFTSFGISWVRQAPGQGLEWMGRIDTYNGKTNYAQKLQGRVTMTTDTYTSTAYMELRSLTSDDTAVYYCARDDCRSSTCYLAQHNWQAYYHDSWGQGTLVTVSS
VL: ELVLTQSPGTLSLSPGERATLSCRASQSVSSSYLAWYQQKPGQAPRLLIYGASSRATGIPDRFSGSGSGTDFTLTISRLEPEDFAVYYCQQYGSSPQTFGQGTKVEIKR
B15: Fab U1 (Fab, V domains shown)
VH: VQLLEQSGPEVKRPGTSVKMSCKISGGASITQAMSWVRQAPGQGLEWMGGITPIFGTVNYAQKILGRVTITADEDTVSLELSSLKSEDTAVYYCAREVNLKTWNLAHPNVFDVWGQGTMLTVSS
VL: ELTQSPSSLSASVGDRVTITCRASQSISSFLNWYQQKPGKAPKLLIYAASSLQSGVPPRFSGSGSGTDFTLTISSLQPEDFATYYCQQSYSTPRTFGQGTKLEIKR
B16: Fab N3 (Fab, V domains shown)
VH: VQLLEQSGAEVKKPGDSLRISCKMSGDSLVWIGWVRQKPGQGLEWMGIINPGDSATNIYPGDSDTRYGPSFQGQVTISIDKSTSTAYLQWNAVKASDTGIYYCARHVPVPISGTFLWREREMHDLGYFDDWGQGTLVIVSS
VL: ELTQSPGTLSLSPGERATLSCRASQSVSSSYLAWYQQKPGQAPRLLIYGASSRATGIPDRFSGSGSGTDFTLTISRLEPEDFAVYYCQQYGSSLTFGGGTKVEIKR
notes: Soluble Fab

The first assay deals with T1, HCV E1E2 complex, isolate H77 (genotype 1a) (hepatitis C virus genotype 1a, isolate …, UniProt P27958 192-383; P27958 384-746). The assay is described as follows: Fab screen after panning on E1E2 (H77).
B1: the binding result was “binds”.
Take B2: the binding result was “binds”.
With B3, the binding result is given as “binds”.
Still for that read-out and setting: as for B4, the entry is “binds”.
Same read-out and setting: the value for B5 was “binds”; that for B6 was “binds”.

The target in another assay is T1, HCV E1E2 complex, isolate H77 (genotype …). The assay is described as follows: Fab ELISA on unmasked E1E2. In general terms: An ELISA detects its analyte on a solid surface through an enzyme-linked reagent.
On to B7, for which the binding result is reported as “binds”.
Same read-out and setting: as for B8, the entry is “binds”; as for B9, “binds”; as for B10, “binds”.
Consider B11, for which the binding result was “binds”.
Turning to B12, the binding result is listed as “binds”.
The same measure, in the same setting: as for B13, the entry is “binds”.
As for B14, the binding result was “binds”.
Take B15: the binding result is “binds”.
Consider B16, for which the binding result is “binds”.

The record behind these values is patent US20110311550A1 (Scripps Research, published 2011).
